According to patent US20040038869A1 (published 2004):

Target: Human factor D (human, UniProt P00746 26-253)
Assay: cell-based or functional assay

Human factor D, sequence (P00746 26-253 limits assumed): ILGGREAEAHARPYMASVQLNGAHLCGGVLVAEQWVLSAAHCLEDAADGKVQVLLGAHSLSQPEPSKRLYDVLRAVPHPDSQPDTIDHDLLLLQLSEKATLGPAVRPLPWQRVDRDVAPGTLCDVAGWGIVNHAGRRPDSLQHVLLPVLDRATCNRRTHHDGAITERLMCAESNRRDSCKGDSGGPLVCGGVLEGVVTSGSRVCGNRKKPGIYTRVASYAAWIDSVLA

B1: Recombinant polypeptide from Example 6 (Placobdella papillifera alternative complement pathway inhibitor, mature polypeptide of SEQ ID NO: 16) (other)
chain: VEFQDCKKSSDCETLELRCNKNTSKCECRNQVCPRACPDGKYKLDEYGCKRCLCQGCNEAQCRKLCWYGFTTDENGCESYCKCNTKETACKNVLCSDSYQCDPESGNCVAVIPGKEHDYYSYNDDDDEDK
modifications: No modification is reported for the recombinant product. paragraph 50 mentions only in general a possible N-glycosylation at Asn22 and sulphation or phosphation of Tyr119, Tyr120 and Tyr122. Disulphide bonds between cysteines are likely but not mapped.
B1 was tested, and the “IC50 of inhibition of CVF-induced C3a generation in human serum (C3a ELISA)” value was 0.138 µg/mL.
